Measured values reported in patent US20230303674A1.

Experiments:
[1] = biological target: human α-CGRP 1-37 (WT) (human); assay: Biacore 25°C, Fab over biotinylated CGRP on SA chip
[2] = biological target: human α-CGRP 1-37 (WT) (human); assay: Biacore 37°C, Fab over biotinylated CGRP on SA chip
[3] = biological target: rat α-CGRP (1-37) (rat); assay: as above
[4] = biological target: human α-CGRP K35A (19-37) (human); assay: Biacore SPR, 25 °C, Fab over peptide on chip; KD ratio to parent 19-37
[5] = biological target: human α-CGRP F27A (25-37) (human); assay: Biacore SPR, 25 °C, Fab over peptide on chip; KD ratio to parent 25-37
[6] = biological target: human α-CGRP F37A (25-37) (human); assay: as above
[7] = biological target: human α-CGRP G33A (25-37) (human); assay: as above
[8] = biological target: human α-CGRP N31A (25-37) (human); assay: as above
[9] = biological target: human α-CGRP P29A (25-37) (human); assay: as above
[10] = biological target: human α-CGRP S34A (25-37) (human); assay: as above
[11] = biological target: human α-CGRP T30A (25-37) (human); assay: as above
[12] = biological target: human α-CGRP V28A (25-37) (human); assay: as above
[13] = biological target: human α-CGRP V32A (25-37) (human); assay: as above
[14] = biological target: human α-CGRP fragment 19-37 (human); assay: Biacore SPR, 25 °C, Fab flowed over biotinylated peptide on SA chip; mean ± SD of two measurements
[15] = biological target: human α-CGRP fragment 25-37 (human); assay: as above

Sequence of human α-CGRP 1-37 (WT) (human) (peptide, as listed by the source): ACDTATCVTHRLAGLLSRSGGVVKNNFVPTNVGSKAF
Sequence of rat α-CGRP (1-37) (rat) (peptide, as listed by the source): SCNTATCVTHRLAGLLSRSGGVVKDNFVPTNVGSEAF

Kd [1]: 1 nM
Kd [2]: 0.9 nM
Kd [3]: 47 nM
KD(mutant/parent) [4]: 4
KD(mutant/parent) [5]: 1
KD(mutant/parent) [6]: 3600
KD(mutant/parent) [7]: 1260
KD(mutant/parent) [8]: 9
KD(mutant/parent) [9]: 26
KD(mutant/parent) [10]: 69
KD(mutant/parent) [11]: 7
KD(mutant/parent) [12]: 1
KD(mutant/parent) [13]: 41
Kd [14]: 1.1 nM
Kd [15]: 0.14 nM
Substance: murine anti-CGRP monoclonal antibody 7E9, Fab fragment
